Usually Kd stands for the free concentration of one partner at which half of the binding sites on the other are occupied at equilibrium, for simple one-to-one binding.

The target of test [1] is T1, Mouse IL-18BP (amino acids 31-194), biotinylated (mouse, UniProt Q9Z0M9 29-193, biotin on the AviTag (BirA ligase)).
T1 construct: also called mIL-18BP
T1 sequence: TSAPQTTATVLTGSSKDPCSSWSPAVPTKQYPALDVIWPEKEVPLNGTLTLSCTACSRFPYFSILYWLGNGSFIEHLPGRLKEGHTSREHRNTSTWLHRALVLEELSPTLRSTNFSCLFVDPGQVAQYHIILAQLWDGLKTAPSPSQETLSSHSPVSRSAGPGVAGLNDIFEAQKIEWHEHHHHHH
The test can be described thus: SPR, immobilized biotinylated mIL-18BP, mCS2 as analyte; traces stay at or below about 2 RU during the injection (0 to about 180 s) on a 0-40 RU axis. The method, then:
(§1) Experiments were conducted using a Biacore T100 and carried out at 25° C. Biotinylated IL-18Rα or IL-18BP were immobilized onto a Biacore biotin capture chip (Series S CAP sensor chip, GE Healthcare) to yield an Rmax of ˜50 RU (IL-18Rα) or ˜10 RU (IL-18BP). Measurements were made with serial dilutions of the IL-18 variants in HEPES buffered Saline-P+buffer (10 mM HEPES pH 7.4, 150 mM NaCl, 0.005% surfactant P20). The surface was regenerated by three 60-sec injections of regeneration buffer (3/4 (v/v) 8M guanidine hydrochloride with 1/4 (v/v) 1M sodium hydroxide). Experiments were performed in multiple channels simultaneously for increased observations. All data were analyzed with the Biacore T100 evaluation software version 2.0 with a 1:1 Langmuir binding model.
(SPR reads the build-up and loss of mass on a sensor chip optically.)

Test [2] concerns the target T1, Mouse IL-18BP (amino acids 31-194), …. The experiment in a line: SPR (Biacore T100), IL-18BP captured via biotin, IL-18 as analyte; SPR, soluble variant. The procedure:
as §1

Test [3] has the same target. The experiment in a line: SPR; KD for IL-18BP over KD for IL-18Rα; SPR; ratio of two measured KD. The procedure:
as §1

Test [4] shares this target. The experiment in a line: yeast binding isotherms and SPR; members per FIG. 11A legend. The method, then:
(§2) Individual colonies of IL-18 yeast were grown overnight at 30° C. in SDCAA liquid media and induced in SGCAA liquid media for 1 day at 20° C. IL-18 display levels on yeast were verified by flow cytometry using an anti-cMyc tag antibody (anti-myc-PE; Cell Signaling Technologies). Receptor staining with biotinylated IL-18Rα (with or without IL-18R β) or biotinylated IL-18BP was performed in PBS supplemented with 0.5% BSA and 2 mM EDTA (PBE) on ice. All analysis was performed on a Sony SA3800 flow cytometer.
as §1

Test [5] addresses T2, Mouse IL-18Rα ectodomain (amino acids 19-329), biotinylated (mouse, UniProt Q61098 19-329, biotin on the AviTag (BirA ligase)).
T2 construct: range 19-329; Secreted from Expi293 cells (H7 signal peptide removed); also called mIL-18Rα; mIL18Ra
T2 sequence: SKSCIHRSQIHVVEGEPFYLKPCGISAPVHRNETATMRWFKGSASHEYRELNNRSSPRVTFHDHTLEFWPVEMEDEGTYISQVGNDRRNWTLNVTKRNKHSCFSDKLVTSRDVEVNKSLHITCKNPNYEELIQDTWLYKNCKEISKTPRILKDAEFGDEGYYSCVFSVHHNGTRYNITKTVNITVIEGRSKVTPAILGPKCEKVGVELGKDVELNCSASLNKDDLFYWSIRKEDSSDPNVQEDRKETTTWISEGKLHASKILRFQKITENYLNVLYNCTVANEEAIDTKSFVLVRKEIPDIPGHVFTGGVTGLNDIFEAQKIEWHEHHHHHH
The experiment in a line: on-yeast binding isotherm (flow cytometry). The procedure:
as §2
(In general: A flow cytometer gives signals particle by particle.)

Test [6] concerns the target T1, Mouse IL-18BP (amino acids 31-194), …. The experiment in a line: on-yeast binding isotherms; 10 µM used for NBD; yeast-displayed variant; ratio computed with 10 µM put in for NBD. The method, then: as §2
Test [7] shares this target. The test can be described thus: SPR; KD ratio relative to WT IL-18; SPR; ratio normalized to WT. The procedure: as §1
Test [8] deals with T2, Mouse IL-18Rα ectodomain (amino acids …). The test can be described thus: SPR (Biacore T100), receptor captured via biotin, IL-18 as analyte. The method, then:
as §1

Test [9] addresses T1, Mouse IL-18BP (amino acids 31-194), …. The experiment in a line: SPR; KD(IL-18BP)/KD(IL-18Rα) normalized to WT IL-18.
Test [10] concerns the target T2, Mouse IL-18Rα ectodomain (amino acids …). The test can be described thus: SPR.
Test [11] addresses T1, Mouse IL-18BP (amino acids 31-194), …. The experiment in a line: on-yeast binding isotherms; KD ratio relative to WT IL-18; yeast-displayed variant; ratio normalized to WT, from the 10 µM placeholder. The procedure: as §2

B1: SEQ ID NO: 61 (murine DR-IL-18 variant mCS2) (ligand)
chain: HFGRLHCTTAVIRNINDQVLFVDKRQPVFEDMTDIDQSASEPQTRLIIYAYGDSRARGKAVTLSVKDSKMSTLSCKNKIISFEEMDPPENIDDIQSDLIFFQKRVPGHNKMEFESSLYEGHFLACQKEDDAFKLILKKKDENGDKSVMFTLTNLHQS
notes: Engineered variant
For the molecule B1, the dissociation constant Kd was greater than 10000 nM in test [1]; 10500 nM in test [2]; greater than 1000 nM in test [4]; 11.3 nM in test [5]; 0.079 nM in [8]; 0.08 nM in [10]. The “KD ratio IL-18BP/IL-18Rα” value in [3] is 133000; in test [6], greater than 885. Moreover, the results for the “Dissociation Constant Ratio normalized to WT IL-18” value in [7] and in test [11] were 7.25e+07 and greater than 4690, respectively. Moreover, in test [9], the “IL-18 BP:Rα Dissociation Constant Ratio” value was greater than 7.5e+07.

The record behind these values is US20230277625A1 (SIMCHA IL 18, published 2023).
